From US20260207747A1 (ARTIVA BIOTHERAPEUTICS, published 2026)

B1: Antibody #4 (Clone ID 14D14A_C) (antibody, V domains shown)
VH: QVQLQESGPGLVKPSETLSLTCTVSGGSISSYYWCWIRQSAGKGLEWIGRMYTSGSTNYNPSLKSRVTMSVDTSKNQFSLKLTSVTAADTAVYYCARERGYYYGGGGWIDPWGQGTLVTVSS
VL: not shown
notes: Same VL as 14D14A; The VH differs in Kabat CDR-H1 (SYYWC)
B2: Antibody #4 (Clone ID 14D14A) (antibody, V domains shown)
VH: QVQLQESGPGLVKPSETLSLTCTVSGGSISSYYWCWIRQSAGKGLEWIGRMYTSGSTNYNPSLKSRVTMSVDTSKNQFSLKLTSVTAADTAVYYCARERGYYYGGGGWIDPWGQGTLVTVSS
VL: not shown
notes: That clone differs in Kabat CDR-H1 (SYYWC against SYYWS)
B3: 16M16A scFv (scFv)
scFv: QPVLTQPPSASASLGASVTLTCTLSSGYSNYKVDWYQQRPGKGPRFVMRVGTGGIVGSKGDGIPDRFSVLGSGLNRYLTIKNIQEEDESDYHCGADHGSGSNFVYVFGTGTKVTVLGGGGSGGGGSGGGGSQVQLVQSGTEVKKPGASVKVSCKASGSTFTSFFIHWVRQAPGQGLEWMGLINPSGGGTGYALKFQGRVTMTRDTSTSTVYMELSSLRSEDTAVYFCSRGNYEAFDLWGHGTMVTVSS
notes: VL-(G4S)3-VH
B4: Antibody #1 (Clone ID 01P08A) (antibody, V domains shown)
VH: QVQLQESGPGLVKPSETLSLTCIVSGGSISSYYWNWIRQPAGKGLEWIGRIYKSGNNIYNPSLQSRVTMSLDTSKNQFSLKLSSVTAADTAVYYCADGGNYFDWFDPWGQGTLVIVSS
VL: QPVLTQPPSASASLGASVTLTCTLSSGYSNYKVDWYQQRPGKGPRFVMRVGTGGIVGSKGDGIPDRFSVLGSGLIRYLTIKNIQEEDESDYHCGADHGSGNNFVYVFGTGTKVTVL
notes: Raised in AlivaMab mice immunised with human BCMA and purified on protein A. Detected with anti-mouse IgG
B5: Antibody #3 (Clone ID 13L15A) (antibody, V domains shown)
VH: QAQLVQSGAEVKRPGASVKVSCKASGYTFISYLLHWVRQAPGQGLEWMVIINPSVGSTSYAQKFQGRVTMTRDTSTSTLYMELSSLRSEDTAVYYCARSSRNYWDGAFDIWGQGTMVTVSS
VL: QPVLTQPPSASASLGASVTLTCTLSSGYSNYRVDWYQQRPGKGPRFVMRVGTGGIVGSKGDGIPDRFSVLGSGLNRYLTIKNIQEEDESDYHCGADHGSGSNFVWVFGGGTKLTVL
notes: as for B4
B6: Antibody #5 (Clone ID 16M16A) (antibody, V domains shown)
VH: QVQLVQSGTEVKKPGASVKVSCKASGSTFTSFFIHWVRQAPGQGLEWMGLINPSGGGTGYALKFQGRVTMTRDTSTSTVYMELSSLRSEDTAVYFCSRGNYEAFDLWGHGTMVTVSS
VL: QPVLTQPPSASASLGASVTLTCTLSSGYSNYKVDWYQQRPGKGPRFVMRVGTGGIVGSKGDGIPDRFSVLGSGLNRYLTIKNIQEEDESDYHCGADHGSGSNFVYVFGTGTKVTVL
notes: as for B4
B7: 13I04A scFv (scFv)
scFv: DIVMTQSPDSLAVSLGERATINCKSSQSVLYSSYNKNYLAWYQQKPGQPPKILIYWASTRESGVPDRFTGSGSGTDFTLTISSLQAEDVAVYYCQQYYSTMYSFGQGTKLEIKGGGGSGGGGSGGGGSEVQLVESGGGLVQPGGSLRLSCAASGFTSSNYWMSWVRQAPGKGLEWVANIKHDGSEKYFVDSVKGRFTISRDNANNSLYLQMNSLRDEDTAVYYCARMRPWYYDLWGRGTLVTVSS
notes: VL-(G4S)3-VH
B8: 01P08A scFv (scFv)
scFv: QPVLTQPPSASASLGASVTLTCTLSSGYSNYKVDWYQQRPGKGPRFVMRVGTGGIVGSKGDGIPDRFSVLGSGLIRYLTIKNIQEEDESDYHCGADHGSGNNFVYVFGTGTKVTVLGGGGSGGGGSGGGGSQVQLQESGPGLVKPSETLSLTCIVSGGSISSYYWNWIRQPAGKGLEWIGRIYKSGNNIYNPSLQSRVTMSLDTSKNQFSLKLSSVTAADTAVYYCADGGNYFDWFDPWGQGTLVIVSS
notes: VL-(G4S)3-VH
B9: 13L15A scFv (scFv)
scFv: QPVLTQPPSASASLGASVTLTCTLSSGYSNYRVDWYQQRPGKGPRFVMRVGTGGIVGSKGDGIPDRFSVLGSGLNRYLTIKNIQEEDESDYHCGADHGSGSNFVWVFGGGTKLTVLGGGGSGGGGSGGGGSQAQLVQSGAEVKRPGASVKVSCKASGYTFISYLLHWVRQAPGQGLEWMVIINPSVGSTSYAQKFQGRVTMTRDTSTSTLYMELSSLRSEDTAVYYCARSSRNYWDGAFDIWGQGTMVTVSS
notes: VL-(G4S)3-VH
B10: Antibody #2 (Clone ID 13I04A) (antibody, V domains shown)
VH: EVQLVESGGGLVQPGGSLRLSCAASGFTSSNYWMSWVRQAPGKGLEWVANIKHDGSEKYFVDSVKGRFTISRDNANNSLYLQMNSLRDEDTAVYYCARMRPWYYDLWGRGTLVTVSS
VL: not shown
notes: Raised in AlivaMab mice immunised with human BCMA and purified on protein A. Detected with anti-mouse IgG; also called 13104A

How the values were obtained:
[1] = target: T1, human B cell maturation antigen (BCMA), full-length, on cells (human, UniProt Q02223 1-184); assay: FACS titration; cells not named in the heading (value equals the NCI-H929 EC50 of 14D14A in Table 2); heading of Table 6; cells not given
T1 construct: also called CD269; TNFRSF17
T1 sequence: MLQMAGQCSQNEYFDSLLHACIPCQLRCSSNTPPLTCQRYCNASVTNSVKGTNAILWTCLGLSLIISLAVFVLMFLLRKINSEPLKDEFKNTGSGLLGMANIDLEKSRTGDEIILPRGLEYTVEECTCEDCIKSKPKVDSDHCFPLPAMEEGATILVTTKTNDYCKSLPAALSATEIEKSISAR

[2] = target: T1, human B cell maturation antigen (BCMA), …; assay: FACS titration (Scatchard analysis) on BCMA-expressing human NCI-H929 cells; anti-mouse IgG-A647 detection
Protocol: (§1) Antibodies were generated by immunizing AlivaMab mice with human BCMA and sequenced. The antibody sequences are shown in Table 3, Table 4, Table 5, Table 6, Table 7, and Table 8. […] Antibodies were titrated from 10 nM, with seven 1:5 dilutions. A positive control, mouse anti-human BCMA antibody (Biolegend, cat #357514) was tested in each experiment. Binding readout was measured via secondary detection, using an anti-mouse IgG-A647 nm (dilution 1:10000).

[3] = target: T1, human B cell maturation antigen (BCMA), …; assay: FACS titration (Scatchard analysis) on HEK-293T cells stably expressing full-length human BCMA; anti-mouse IgG-A647 detection
Protocol: as §1

[4] = target: T1, human B cell maturation antigen (BCMA), …; assay: Retrogenix Cell Microarray, proteins expressed in human HEK293 cells

Binder | EC50 [1] [nM] | EC50 [2] [nM] | EC50 [3] [nM] | binding result [4]
B1 | 0.827 | – | – | –
B2 | – | 0.827 | 0.172 | –
B3 | – | – | – | binds
B4 | – | 3.79 | 1.03 | –
B5 | – | 0.235 | 0.051 | –
B6 | – | 0.188 | 0.04 | –
B7 | – | – | – | binds
B8 | – | – | – | binds
B9 | – | – | – | binds
B10 | – | 0.189 | 0.037 | –
